The results in this text go back to paper PMC12655336, “Study on the High-Efficiency Expression of Horseradish Peroxidase in Pichia pastoris” (Molecules, 2025).

Substrate in data set [1]: Cc1cc(-c2cc(C)c(N)c(C)c2)cc(C)c1N
The data set can be described thus: spectrophotometric oxidation, Michaelis-Menten fit. The settings on record: 1 mM H2O2, 37 °C, 450 nm, deglycosylated enzyme. It is filed as biochemical, Armoracia rusticana. From the text: (§1) spectrophotometric oxidation, Michaelis-Menten fit on Degly-HRP

Substrate in data set [2]: CCn1c(=NN=c2sc3cc(S(=O)(=O)O)ccc3n2CC)sc2cc(S(=O)(=O)O)ccc21
Put plainly: spectrophotometric oxidation, Michaelis-Menten fit. It is filed as biochemical, Armoracia rusticana. Conditions: 1 mM H2O2, 37 °C, 415 nm, deglycosylated enzyme.
Description: as §1

Substrate in data set [3]: Nc1ccccc1N
Put plainly: spectrophotometric oxidation, Michaelis-Menten fit. It is filed as biochemical, Armoracia rusticana. Conditions: 1 mM H2O2, 37 °C, 492 nm, deglycosylated enzyme.
Description: as §1

Substrate in the data set “purified protein”: COc1ccccc1O
The data set can be described thus: purified protein. Conditions: 1 mM H2O2, 37 °C, 436 nm.

Substrate in data set [4]: CCn1c(=NN=c2sc3cc(S(=O)(=O)O)ccc3n2CC)sc2cc(S(=O)(=O)O)ccc21
The data set can be described thus: spectrophotometric oxidation, Michaelis-Menten fit. The settings on record: 1 mM H2O2, 37 °C, 415 nm, glycosylated enzyme. It is filed as biochemical, Armoracia rusticana. From the text: (§2) spectrophotometric oxidation, Michaelis-Menten fit on HRP-C (W-HRP)

Substrate in data set [5]: Nc1ccccc1N
The data set can be described thus: spectrophotometric oxidation, Michaelis-Menten fit. It is filed as biochemical, Armoracia rusticana. The settings on record: 1 mM H2O2, 37 °C, 492 nm, glycosylated enzyme.
Description: as §2

B1: Degly-HRP (Armoracia rusticana) (protein)
chain: QLTPTFYDNSCPNVSNIVRDTIVNELRSDPRIAASILRLHFHDCFVNGCDASILLDNTTSFRTEKDAFGNANSARGFPVIDRMKAAVESACPRTVSCADLLTIAAQQSVTLAGGPSWRVPLGRRDSLQAFLDLANANLPAPFFTLPQLKDSFRNVGLNRSSDLVALSGGHTFGKNQCRFIMDRLYNFSNTGLPDPTLNTTYLQTLRGLCPLNGNLSALVDFDLRTPTIFDNKYYVNLEEQKGLIQSDQELFSSPNATDTIPLVRSFANSTQTFFNAFVEAMDRMGNITPLTGTQGQIRLNCRVVNSNS
notes: same HRP-C from Pichia pastoris GS115, His-tagged, Ni-NTA purified; deglycosylated with EndoH (O-glycans may remain)
In the case of B1, the Michaelis-Menten constant (Km) (in general, the concentration of substrate that gives half-maximal velocity) in data set [1] turned out to be 96 µM; in data set [2], 45.35 µM; in data set [3], 41 µM; in “purified protein” (deglycosylated enzyme), 20.59 µM. In addition, the kcat (in general, the number of substrate molecules converted per active site and unit of time at saturation) in data set [1] was determined as 238 s⁻¹; in data set [2] it was 238 s⁻¹; in data set [3], 745 s⁻¹; in “purified protein” (deglycosylated enzyme), 270 s⁻¹.

B2: HRP-C (W-HRP) (Armoracia rusticana) (protein)
chain: QLTPTFYDNSCPNVSNIVRDTIVNELRSDPRIAASILRLHFHDCFVNGCDASILLDNTTSFRTEKDAFGNANSARGFPVIDRMKAAVESACPRTVSCADLLTIAAQQSVTLAGGPSWRVPLGRRDSLQAFLDLANANLPAPFFTLPQLKDSFRNVGLNRSSDLVALSGGHTFGKNQCRFIMDRLYNFSNTGLPDPTLNTTYLQTLRGLCPLNGNLSALVDFDLRTPTIFDNKYYVNLEEQKGLIQSDQELFSSPNATDTIPLVRSFANSTQTFFNAFVEAMDRMGNITPLTGTQGQIRLNCRVVNSNS
notes: codon-optimised synthetic HRP-C gene, secreted from Pichia pastoris GS115 with MF4I signal peptide, His-tagged, Ni-NTA purified; glycosylated (not EndoH treated)
For B2, the Km came out at 48.55 µM in data set [4] and 36 µM in data set [5]. Besides, the figures for the kcat (in data set [4]; in data set [5]; in “purified protein” (glycosylated enzyme)) were 267 s⁻¹, 747 s⁻¹ and 291 s⁻¹, respectively.
